Reference: article PMC8561297

Legend:
[1] = target: von Willebrand factor (human (endogenous in whole blood)) (UniProt P04275)
[2] = target: von Willebrand factor (human (endogenous in whole blood)) (UniProt P04275); remark: listed apart in the source

Substance: platelet GPIbα (from UniProt P07359 17-652) (receptor)
- share of slow-rolling platelets at constant shear [1]: 36%
- share of slow-rolling platelets at shear rate gradient [1]: 52.9%
- platelet adhesion at the stenosis apex, control (platelets/mm^2) [2]: 3930
- platelet adhesion in the stenosis outlet, control (platelets/mm^2) [2]: 5040
- platelet rolling velocity at the stenosis apex, control [2]: 4.41 μm s^-1
- platelet rolling velocity at the stenosis apex, with scFv A1 [2]: 4.6 μm s^-1
